Fewer inactive variants are shown than the library holds.
B1: TPR 5TU (parent)
chain: GGAUCUUCUCGAUCUAACAAAAAAGACAAAUCUGCCACAAAGCUUGAGAGCAUCUUCGGAUGCAGAGGCGGCAGCCUUCGGUGGCGCGAUAGCGCCAACGUUCUCAACUAUGACACGCAAAACGCGUGCUCCGUUGAAUGGAGUUUAUCAUG

Variants of: B1
Assay: polymerase ribozyme fitness, log enrichment relative to wild type (log ratio); higher = more active; in vitro selection for triplet polymerase activity
Summary of the method: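 Each subunit of a heterodimeric triplet polymerase ribozyme was represented by a PCR-built, transcribed mutant library that underwent triplicate single-round in vitro selection with frozen incubation at −7 °C. Extended constructs were recovered by gel excision, streptavidin-bead capture and RT-PCR, and Illumina sequencing of input and output libraries kept genotypes with ≥10 input reads and ≥1 read per output. Fitness is the logarithm of genotype enrichment relative to wild-type enrichment, from inverse-variance-weighted replicate averages, with a logarithm base of 2.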
With GGAUCUUCUCGAUCUAACAAAAAAGACAAAUCUGCCACAAAGCUUGAGAGCAUCUUCGGGUGCAGAGGCGGCAGCCUUCGGUGGCGCGAUAGCGCCAACGUUCUCAACUAUGACACGCAAAACGCGUGGUCCGUUGAAUGGAGUUUAUCAUG the “polymerase ribozyme fitness (log ratio)” value was -2.25. With GGAUCUUCUCGAUCUAACAAAAAAGACAAAUCUGCCACAAAGCUUGAGAGCAUCGUCGCAUGCAGAGGCGGCAGCCUUCGGUGGCGCGAUAGCGCCAACGUUCUCAACUAUGACACGCAAAACGCGUGCUCCGUUGAAUGGCGUUUAUCAUG the “polymerase ribozyme fitness (log ratio)” value was -3.24. In the case of GGAUCUUCUCGAUCUAACAAAAAAGACCAAUCUGCCACAAAGCUUGAGCGCAUCUUCGGAUGCAGAGGCGGCAGCCUUCGGUGGCGCGAUAGCGCUAACGUUCUCAACUAUGACACGCAAAACGCGUGCUCCAGUGAAUGGAGUUUAUCAUG, the “polymerase ribozyme fitness (log ratio)” value is reported as -4.14. For GGAUCUUCUUAAUCUAACUAAAAAGACAAAUCUGCCACAAAGCUUGAGAGCAUCAUCGGAUGCAGAGGCGGCAGGCUUCGGUUGCGCGAUAGCGCCAACGUUCUCAACUAUGACACGCAAAACGCGUGCUCCGUUGAAUGGAGUUUAUCAUG, the “polymerase ribozyme fitness (log ratio)” value was no more than -4.2. For GGAUCUUCUCGAUAUAACAAAAAAGACAAAUCUGCCACAAAGCUUGAGAGCAUCUUCGGAUGUAGAGGCGACAGCCUUCGGUGGGGCGAUAGCGCCAACUUUCUCAACUAUGACACGCAAAACGCGUGCUCCGUUGAAUGGAGUUUAUCAUG, the “polymerase ribozyme fitness (log ratio)” value was no more than -4.2. With GGAUCUUCUCGAUCUAACAAAAAAGACAAAUCUGCCACAAAGCUUGAGAGCAUCUUCGGAUGCAGAGGCGGCAGCCUUCGGUGACGCGAUAGCGCCAACGUUCUCAACUAUGACACGCAAAGCGCGUGCUCCGUUGAAUAAAGUUUAUCAUG the “polymerase ribozyme fitness (log ratio)” value was no more than -4.2. For GGCUCUUCUCGAUCUAACAAAAAAGACAAAUCUGCCACAAAGCUUGAGAGCAUCUUCGGAUGCAGAGGCGGCAGCCUUCGGUGGUGCGAUAGCGCCAACGUUCUCAACUAUGACACGCAAAACGCGUGCUCCGUUGAAUGCAGUUUAUCAUG, the “polymerase ribozyme fitness (log ratio)” value was -2.07. For GGAUCUUCUCGAUCUAACAAAAAAGACAAAUCUGCCACAAAGCUUGAGUGCAUCUUCGGAUGCAGAGGCGGCAGCCUUCGGUGGCAGGAUAGCGCCAACGUUCUCCACUAUGACACGCAAAACGCGUGCUCCGUUUAAUGGAGUUUAUCCUG, the “polymerase ribozyme fitness (log ratio)” value was no more than -4.2. In the case of GGAUCUUCUCGAUCUAACAAAAAAGACAAAUCUGCCACAAAGCUUGAGAGCAUCUCCGGAUGCAGAGGCGGCAGCCUUCGGUGGCGCGAUAGCGCUAACGUUCUCAACUAUGACACGCAAAACGCGUGCUCCGUUGAAUGGAGUUUAUCAUG, the “polymerase ribozyme fitness (log ratio)” value is reported as -0.496. In the case of GGAUCUUCUCGAUCUAACAAAAACGACAAAUCUGCCACAAAGCUUGGGAGCAUCUUCGGAUGCAGAGGCGGCAGCCUUUGGUGGCGCGAUAGCCCCAACGUUCUCAACUAUGACACGCAAAACGUGUGCUCCGUUGAAUGGAGUUUAUCAUG, the “polymerase ribozyme fitness (log ratio)” value is reported as no more than -4.2. In the case of GGAUCUUCUCGAUCUAACAAAAAAGUCAAAUCUGCCACAAAGCUUGAGAGCAUCAUCGGAUGCAGAGGCGGCAACCUUCGGUGGCGCGAUAACGCCAACGUUCUCAACUUUGACACGCAAAACGCGUGCUCCGUUAAAUGGAGUUUAUCAUG, the “polymerase ribozyme fitness (log ratio)” value is reported as no more than -4.2. In the case of GGAUCUUCUCGAUCUAACAAAAAAGACAAAUCUGCCACAAAGCUUGAGAGCAUCUUCGGAUGCAGAGGUGGCAGCCUUCGGUGCCGCGAUAGCGCCAACGUUCUCAACUAUGACACGCAAAACGCGUGCUCGGUUGAAUGGAAUUUAUCAUG, the “polymerase ribozyme fitness (log ratio)” value is reported as no more than -4.2. With GGAUCUUCUCGAUCUAACAAAAAAGACAAAUCUGCCACAAAGCUUGAGAGCAUCUUCGGAUGCAGAGGCGGCAGCCUUCGGUGGCGCGAUAACGCCAACGUUCUCAACUAUGACACGCAAAACGCGGGCUCCGUUGAAUGGAGUUUAUCAUG the “polymerase ribozyme fitness (log ratio)” value was -3.27. For GGAUCUUCUCGAUCUAACAAAAAAGACAAAUCUGCCACAAAGCUUGAGAGCAUCUUCGGAUGCAGAGGCGGCAGCCUUCGGAGGCGCGAUAGCGCGAACGUUCUCAACUAUGACACGCAAAACGCGUGCUCCGUUGAAUGGAGUUUAUCAUG, the “polymerase ribozyme fitness (log ratio)” value was -0.244. For GGAUCUUCUCGAUCUAACAAAAAAGACAAAUCUGCCACAAAGCUUGAGAGCAUUUUCGGAUGCAGAGGCGGCGGCCUUCGGUGGCGCGAUAGCGCCAACGUUCUCAACUAUGACACGCAAAACGCGUGCUCCGUUGAAUGGAGUUUAUCAUG, the “polymerase ribozyme fitness (log ratio)” value was -0.166. With GGAUCUUUGCGAUCUAAGAAAAAAGACAAAUCGGCCACAAAGCUUGAGAGCAUCAUCGGAUGCAGAGGCGGCAGCCUUCGGUGGCGCGAUAGCGUCAACGUUCUUAACUAUUACACGCAAAACGCGUGCUCUGUUGAAUGGAGUUUUUCAUG the “polymerase ribozyme fitness (log ratio)” value was no more than -4.2. In the case of GGAUCUUCUCGAUCUAACAAAAAAGACAAAUCUGCCACAAAGCUUGAGAGCAUGUUCGGAUGCAGAGGCGGCAGCCUUCGGUGGCGCGAUAGCGCCAACGGUCUCAACUAUGACACGUAAAACGCGUGCUCCGUUGAAUGGAGUUUAUCAUG, the “polymerase ribozyme fitness (log ratio)” value is reported as -2.4. In the case of GGAUCUUCUCGAUCUAACAAAAAAGACAAAUCUGCCACAAAGCUUGAGAACCUCUUCGGAUGCAGAGGCGGCAGCCUUCGGUGGCGCGAUAGCGCCGACAUUCUCAACUAUGAGACGCAAAACGCGUGCUCCUUUGAAUGGAGUUUAUCAUG, the “polymerase ribozyme fitness (log ratio)” value is reported as no more than -4.2. With GGAUCUUCUCGAUCUAACAAAAAAGACAAAUCUGCCACAAAGCUUGAGAGCAUCUUCGGAUGCAGAGGCGGCAGCCUUCGGUGGCGAGAGAGCGCCAACGUUCUCAACUAUGACACGCAAAACGCGUGCUCCGGUGAAUGGAGUUUAUCAUG the “polymerase ribozyme fitness (log ratio)” value was no more than -4.2.
